According to the Immune Epitope Database (IEDB):

What was measured:
Assay in all cases: IEDB peptide-MHC binding, purified MHC/competitive/radioactivity; ≥ and ≤ were set here for values at or beyond the usual limits of such assays
Settings in all cases: source organism: hepatitis C virus genotype 1a
HLA-A*02:01 = biological target: HLA-A*02:01
HLA-B*07:02 = biological target: HLA-B*07:02
HLA-B*08:01 = biological target: HLA-B*08:01
HLA-B*40:02 = biological target: HLA-B*40:02
HLA-B*40:01 = biological target: HLA-B*40:01

Sequence	IC50 (HLA-A*02:01)	IC50 (HLA-B*07:02)	other results
FLVGQLFTF	0.067 µM		
GVDPNIRTGV	0.351 µM		
HPALVFDIT		0.16 µM	
HSKKKCDEL			IC50 (HLA-B*08:01): 0.764 µM
IPFYGKAI		0.497 µM	
LEDRDRSEL			IC50 (HLA-B*40:02): 4.27 µM; IC50 (HLA-B*40:01): 0.426 µM
RLWHYPCTV	0.012 µM		
RPALVFDIT		0.043 µM	
SLLAPGAKQNV	0.513 µM		
VLSDFKTWL	0.305 µM		
